Consider two substances from US5952216.

Experiment in all cases: ELISA on Sf9 extract, absorbance at 405 nm normalized to H16.D9
The target of assay [1] is HPV11 L1 virus-like particles (human papillomavirus type 11) (UniProt P04012).
Assay [2] concerns the target HPV16 L1 virus-like particles (human papillomavirus type 16) (UniProt P03101).
The target in assay [3] is HPV16:D202E virus-like particles (human papillomavirus type 16) (UniProt P03101).
Assay [4] addresses HPV16:D202H L1 (human papillomavirus type 16) (UniProt P03101).

MAb H16.U4 (antibody): the normalized ELISA value (normalized with H16.D9) in assay [1] was 0.06; in assay [2], 0.79; in assay [3], 0.59; in assay [4] it was 0.21.
The like results for MAb H16.V5 (antibody) were, in that order, 0.06, 1.08, 0.15 and 0.19.
